Measurements published in paper PMC9944321.

Key:
[1] = molecular target: hydrogenated green fluorescent protein [GFP: P42212]; assay: small-angle neutron scattering (SANS); free protein in solution, about 5 mg/mL in Tris-buffer, h-GFP in D2O and d-GFP in H2O, 2-mm quartz cells, ambient conditions; Rg, P(r) and DAMMIF ab initio reconstruction
[2] = molecular target: deuterated green fluorescent protein [GFP: P42212]; assay: as above

Row | Substance | stoichiometry N [1] | stoichiometry N [2]
1 | hydrogenated green fluorescent protein (from UniProt P42212 2-238) (natural protein) | 2 | –
2 | deuterated green fluorescent protein (from UniProt P42212 2-238) (natural protein) | – | 2
